{"source": "IntAct's records for PubMed 21236255", "parents": {"B1": {"name": "Zinc-dependent sulfurtransferase SufU (Bacillus subtilis), O32163 (parent)", "chain": "MSFNANLDTLYRQVIMDHYKNPRNKGVLNDSIVVDMNNPTCGDRIRLTMKLDGDIVEDAKFEGEGCSISMASASMMTQAIKGKDIETALSMSKIFSDMMQGKEYDDSIDLGDIEALQGVSKFPARIKCATLSWKALEKGVAKEEGGN"}}, "data": [{"variants_of": "B1", "conditions": "with sufs_bacsu sufS", "values": [{"variant": "C66A", "effect of a mutation on the interaction": "disrupting interaction"}]}, {"variants_of": "B1", "conditions": "with sufs_bacsu sufS", "remark": "another data set of the same source", "values": [{"variant": "C41A", "effect of a mutation on the interaction": "disrupting interaction"}]}, {"variants_of": "B1", "conditions": "with sufs_bacsu sufS", "remark": "another data set of the same source", "values": [{"variant": "C41A", "effect of a mutation on the interaction": "increasing interaction"}]}, {"variants_of": "B1", "conditions": "with sufs_bacsu sufS", "remark": "another data set of the same source", "values": [{"variant": "C128A", "effect of a mutation on the interaction": "disrupting interaction"}]}]}
